Patent publication US5783663A, “Peptide ligands for affinity purification of fibrinogen” (Bayer Corporation, priority 1998, dated 1998)
No end group written: not given here.

Tests used:
[1] = target: T1, Human fibrinogen (Homo sapiens, UniProt P02671+P02675+P02679); assay: Fibrinogen binding to peptide resin columns (affinity chromatography, UV 280 nm)
T1 construct: purchased Enzymes Research Labs (South Bend, Ind.)
T1 sequence (P02671 20-629 limits assumed): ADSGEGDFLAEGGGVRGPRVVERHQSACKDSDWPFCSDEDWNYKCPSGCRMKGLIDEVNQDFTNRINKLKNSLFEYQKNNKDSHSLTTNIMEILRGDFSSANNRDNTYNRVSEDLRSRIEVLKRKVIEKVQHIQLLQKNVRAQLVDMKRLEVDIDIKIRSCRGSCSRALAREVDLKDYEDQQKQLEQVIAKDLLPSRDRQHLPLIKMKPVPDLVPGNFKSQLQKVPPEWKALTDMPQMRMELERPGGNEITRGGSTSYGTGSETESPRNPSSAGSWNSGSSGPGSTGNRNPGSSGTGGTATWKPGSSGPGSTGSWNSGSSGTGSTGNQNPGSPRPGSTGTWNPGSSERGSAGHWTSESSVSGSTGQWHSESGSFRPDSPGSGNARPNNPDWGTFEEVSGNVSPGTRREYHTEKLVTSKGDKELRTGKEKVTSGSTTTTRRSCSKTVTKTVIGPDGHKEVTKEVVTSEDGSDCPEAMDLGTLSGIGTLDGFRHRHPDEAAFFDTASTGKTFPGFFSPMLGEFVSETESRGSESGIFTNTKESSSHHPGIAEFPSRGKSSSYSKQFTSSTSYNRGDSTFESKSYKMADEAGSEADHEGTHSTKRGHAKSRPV
T1 sequence (P02675 31-491): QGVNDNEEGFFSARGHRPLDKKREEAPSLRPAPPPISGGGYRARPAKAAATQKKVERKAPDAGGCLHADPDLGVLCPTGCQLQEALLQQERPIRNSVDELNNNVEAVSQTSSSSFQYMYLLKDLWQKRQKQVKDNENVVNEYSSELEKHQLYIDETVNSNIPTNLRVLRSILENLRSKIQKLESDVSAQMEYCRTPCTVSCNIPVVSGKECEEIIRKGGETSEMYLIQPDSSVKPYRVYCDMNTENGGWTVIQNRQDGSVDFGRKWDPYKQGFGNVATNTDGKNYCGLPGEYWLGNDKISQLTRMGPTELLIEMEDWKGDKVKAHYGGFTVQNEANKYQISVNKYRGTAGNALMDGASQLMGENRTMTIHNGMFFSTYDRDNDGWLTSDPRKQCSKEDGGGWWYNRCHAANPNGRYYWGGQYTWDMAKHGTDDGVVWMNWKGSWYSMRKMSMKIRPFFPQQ
T1 sequence (P02679 27-437 isoform P02679-2 limits assumed): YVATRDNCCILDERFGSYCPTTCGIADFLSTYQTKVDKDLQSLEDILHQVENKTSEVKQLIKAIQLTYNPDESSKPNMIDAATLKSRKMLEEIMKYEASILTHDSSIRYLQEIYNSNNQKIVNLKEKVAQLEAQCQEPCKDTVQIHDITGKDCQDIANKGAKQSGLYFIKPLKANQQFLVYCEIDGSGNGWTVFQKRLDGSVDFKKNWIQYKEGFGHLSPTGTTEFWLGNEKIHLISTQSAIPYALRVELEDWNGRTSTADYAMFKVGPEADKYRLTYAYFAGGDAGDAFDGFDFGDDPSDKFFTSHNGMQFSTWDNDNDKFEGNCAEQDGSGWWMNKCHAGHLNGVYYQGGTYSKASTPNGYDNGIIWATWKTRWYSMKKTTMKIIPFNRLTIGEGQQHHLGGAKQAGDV
Procedure: (§1) Dried peptide resins were packed into 0.6 ml columns (0.4 cm×5 cm, Thomson, Va.), and evaluated on a Waters HPLC-system (Milford, Mass.) with a UV-detector (Knauer, Germany) monitoring at 280 nm. The columns were conditioned with over 5 volumes of 20% ethanol in water, followed by a minimum of 5 volumes of water.
(§2) Human fibrinogen was purchased from Enzymes Research Labs (South Bend, Ind.), and 25% human serum albumin (HSA) was a donation from the Bayer Corporation (Clayton, N.C.). The following buffers were used for both dissolving fibrinogen and diluting HSA.
Peptide resin columns were equilibrated in Buffer A. The following program was used for each column run: From time 0-15 minutes, Buffer A was applied. At time 10 minutes, a 50 μl sample was injected onto the column with a 50 μl sample loop. From time 15-20 minutes, bound protein was step-eluted by switching to 0.4M acetic acid (Fisher), pH 2.6. The column was then re-equilibrated with Buffer A from time 20-30 minutes. A flow rate of 1 ml/min was used. For each column two injections were made: #1 Buffer A (blank); #2 10 μg/μl Fibrinogen dissolved in Buffer A.
(§3) This column was equilibrated in Buffer A, and the following program was used for each column run: From time 0-15 minutes, Buffer A was applied. At time 5 minutes, a 50 μl sample dissolved in buffer A was injected onto the column with a 100 μl sample loop. From time 15-20 minutes, bound protein was step-eluted by switching to 0.1M acetic acid, pH 2.9, followed by 0.4M acetic acid, pH 2.6, from time 20-21 minutes. The column was then re-equilibrated with Buffer A from time 21-30 minutes. During the column run, the flow rate was 1 ml/min from time 0-21 minutes; it was increased to 2 ml/min from time 21-30 minutes.
(§4) In total, seven injections were made: #1 Buffer A (blank); #2 100 μg/μl HSA; #3 20 μg/μl Fibrinogen; #4 Mixture of 5 μg/μl Fibrinogen and 90 μg/μl HSA; #5 Mixture of 10 μg/μl Fibrinogen and 75 μg/μl HSA; #6 Mixture of 20 μg/μl Fibrinogen and 50 μg/μl HSA; #7 20 μg/μl Fibrinogen.
(§5) After equilibrating in Buffer B, the following program was used for each column run: From time 0-15 minutes, Buffer B was applied. At time 5 minutes, 50 μL sample dissolved in Buffer B was injected onto the column with a 100 μl sample loop. From time 15-20 minutes, bound protein was step-eluted by switching to 20 mM acetic acid, pH 3.2, followed by 0.4M acetic acid, pH 2.6, from time 20-23 minutes. The column was then re-equilibrated with Buffer B from time 23-30 minutes. During the column run, the flow rate was 1 ml/min from time 0-23 minutes, then it was increased to 2 ml/min from time 23-30 minutes. In total, for each column seven injections were made: #1 Buffer B (blank); #2 for WQEHYN-column: 50 μg/μl HSA, and for YENYGY-column: 100 μg/μl HSA; #3 20 μg/μl Fibrinogen; #4 Mixture of 5 μg/μl Fibrinogen and […] HSA; #5 Mixture of 10 μg/μl Fibrinogen and 50 μg/μl HSA; #6 Mixture of 20 μg/μl Fibrinogen and 50 μg/μl HSA; #7 20 μg/μl Fibrinogen.

[2] = target: T1, Human fibrinogen; assay: Fibrinogen recovery from peptide columns (acetic acid elution, A280 of eluted peak); assay type: binding
Procedure: as §1, §2, §3, §4, §5
In parts (b) and (c), eluted protein was collected in 1.25 ml fractions, some in which pH was measured. The fractions were not re-adjusted to a neutral pH. The purity of the eluted protein was assessed by SDS-PAGE (Biorad) of non-reduced as well as of reduced samples. Broad Range Standards (Biorad) were used as molecular weight standards, and dithiothreitol (Sigma) was used as the reducing agent. Eluted protein was centrifuged and supernatant collected for determination of fibrinogen concentration by A280.

[3] = target: T2, human serum albumin (HSA) (Homo sapiens, UniProt P02768); assay: HSA binding to peptide resin columns (affinity chromatography); settings: conditions of the experimental section, FIGS. 3-5
T2 construct: purchased Bayer Corporation (Clayton, N.C.), donated rather than bought
Procedure: as §1, §2
This column was equilibrated in Buffer A, and the following program was used for each column run: From time 0-15 minutes, Buffer A was applied. At time 5 minutes, a 50 μl sample dissolved in buffer A was injected onto the column with a 100 μl sample loop. From time 15-20 minutes, bound protein was step-eluted by switching to 0.1M acetic acid, pH 2.9, followed by 0.4M acetic acid, pH 2.6, from time 20-21 minutes. The column was then re-equilibrated with Buffer A from time 21-30 minutes. During the column run, the flow rate was 1 ml/min from time 0-21 minutes; it was increased to 2 ml/min from time 21-30 minutes. […]

[4] = conditions of the experimental section, FIGS. 3-5
[5] = Column run #3, injected 1000 μg fibrinogen (20 μg/μl fibrinogen alone)
[6] = Column run #4, injected 250 μg fibrinogen (5 μg/μl, mixture with HSA)
[7] = Column run #5, injected 500 μg fibrinogen (10 μg/μl, mixture with HSA)
[8] = Column run #6, injected 1000 μg fibrinogen (20 μg/μl, mixture with 50 μg/μl HSA)
[9] = Column run #7, injected 1000 μg fibrinogen (20 μg/μl fibrinogen alone)

Row | fibrinogen binding to peptide column [1, 4] | Fibrinogen recovery, column peak [2, 5] [µg] | Fibrinogen recovery, column peak [2, 6] [µg] | Fibrinogen recovery, column peak [2, 7] [µg] | Fibrinogen recovery, column peak [2, 8] [µg] | Fibrinogen recovery, column peak [2, 9] [µg] | HSA binding to peptide column [3] | fibrinogen binding to peptide column ([1]; Buffer A (preliminary test / later tests)) | fibrinogen binding to peptide column ([1]; Buffer B) | Substance
1 | bound fibrinogen | 330 | 70 | 140 | 220 | 240 | none of these peptides bound HSA | – | – | Trp-Gln-Glu-His-Tyr-Asn (WQEHYN; not fully specified (C-terminus); printed as Trp-Gln-Glu-His-Tyr-Asn) [hexapeptide ligand synthesized onto TOTDA-modified Toyopearl resin]
2 | bound fibrinogen | 360 | 100 | 150 | 310 | 340 | none of these peptides bound HSA | – | – | Trp-Gln-Glu-Thr-Tyr-Gln (WQETYQ; not fully specified (C-terminus); printed as Trp-Gln-Glu-Thr-Tyr-Gln) [hexapeptide ligand synthesized onto TOTDA-modified Toyopearl resin]
3 | bound fibrinogen | 530 | 150 | 280 | 520 | 530 | – | – | – | Tyr-Glu-Asn-Tyr-Gly-Tyr (YENYGY; not fully specified (C-terminus); printed as Tyr-Glu-Asn-Tyr-Gly-Tyr) [hexapeptide ligand synthesized onto TOTDA-modified Toyopearl resin]
4 | – | – | – | – | – | – | – | did not bind fibrinogen | did not bind fibrinogen | W-E-Q-(S)-N-P (WEQSNP)
